Source: PMC4775402 (Pharmacological research, 2016)

Key:
[1] = target: WT P2RY1 (Homo sapiens, UniProt P47900); assay: Label-free DMR agonist response, HEK293T expressing WT P2RY1; assay type: cell-based
[2] = target: ΔPDZ P2RY1 (Homo sapiens, UniProt P47900); assay: Label-free DMR agonist response, HEK293T expressing ΔPDZ P2RY1; assay type: cell-based
[3] = target: WT P2RY12 (Homo sapiens, UniProt Q9H244); assay: Label-free DMR agonist response, HEK293T expressing WT P2RY12; assay type: cell-based
[4] = target: ΔPDZ P2RY12 (Homo sapiens, UniProt Q9H244); assay: Label-free DMR agonist response, HEK293T expressing ΔPDZ P2RY12; assay type: cell-based
[5] = tested on: WT ADRA1D; conditions: cited from earlier work
[6] = tested on: ΔPDZ ADRA1D; conditions: cited from earlier work
[7] = target: T1, WT CXCR1 (Homo sapiens, UniProt P25024); assay: Label-free DMR agonist response, HEK293T expressing WT CXCR1; assay type: cell-based
T1 sequence (P25024 1-350): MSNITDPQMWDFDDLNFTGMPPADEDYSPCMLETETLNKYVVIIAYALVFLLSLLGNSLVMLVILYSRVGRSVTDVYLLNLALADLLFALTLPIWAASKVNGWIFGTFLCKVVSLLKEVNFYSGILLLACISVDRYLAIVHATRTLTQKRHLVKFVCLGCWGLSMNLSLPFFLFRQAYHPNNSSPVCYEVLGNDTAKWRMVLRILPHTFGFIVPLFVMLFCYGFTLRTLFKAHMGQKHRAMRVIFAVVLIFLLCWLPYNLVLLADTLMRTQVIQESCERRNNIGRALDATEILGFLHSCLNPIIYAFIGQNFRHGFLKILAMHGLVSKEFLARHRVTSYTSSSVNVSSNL

[8] = target: T2, ΔPDZ CXCR1 (Homo sapiens, UniProt P25024); assay: Label-free DMR agonist response, HEK293T expressing ΔPDZ CXCR1; assay type: cell-based
T2 sequence (P25024 1-346 limits assumed): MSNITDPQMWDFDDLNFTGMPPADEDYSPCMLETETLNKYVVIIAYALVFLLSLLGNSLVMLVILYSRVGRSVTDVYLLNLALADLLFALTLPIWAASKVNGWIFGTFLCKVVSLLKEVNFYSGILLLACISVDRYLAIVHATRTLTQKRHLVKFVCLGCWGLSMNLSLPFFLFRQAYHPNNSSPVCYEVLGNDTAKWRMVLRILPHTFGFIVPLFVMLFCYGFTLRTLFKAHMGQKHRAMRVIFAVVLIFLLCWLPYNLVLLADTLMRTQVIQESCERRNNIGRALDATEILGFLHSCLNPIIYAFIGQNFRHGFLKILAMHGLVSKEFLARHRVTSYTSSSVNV

[9] = target: T3, WT CXCR2 (Homo sapiens, UniProt P25025); assay: Label-free DMR agonist response, HEK293T expressing WT CXCR2; assay type: cell-based
T3 sequence (P25025 1-360): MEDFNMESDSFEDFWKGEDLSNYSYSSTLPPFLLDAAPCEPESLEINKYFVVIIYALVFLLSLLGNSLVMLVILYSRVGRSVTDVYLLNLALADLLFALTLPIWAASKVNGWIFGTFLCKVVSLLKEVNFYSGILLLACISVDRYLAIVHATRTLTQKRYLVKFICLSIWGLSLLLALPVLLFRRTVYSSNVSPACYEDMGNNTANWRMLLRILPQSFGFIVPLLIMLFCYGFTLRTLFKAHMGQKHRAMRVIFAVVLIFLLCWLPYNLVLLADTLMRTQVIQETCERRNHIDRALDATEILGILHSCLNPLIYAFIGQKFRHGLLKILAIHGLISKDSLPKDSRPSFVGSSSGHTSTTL

[10] = target: T4, ΔPDZ CXCR2 (Homo sapiens, UniProt P25025); assay: Label-free DMR agonist response, HEK293T expressing ΔPDZ CXCR2; assay type: cell-based
T4 sequence (P25025 1-356 limits assumed): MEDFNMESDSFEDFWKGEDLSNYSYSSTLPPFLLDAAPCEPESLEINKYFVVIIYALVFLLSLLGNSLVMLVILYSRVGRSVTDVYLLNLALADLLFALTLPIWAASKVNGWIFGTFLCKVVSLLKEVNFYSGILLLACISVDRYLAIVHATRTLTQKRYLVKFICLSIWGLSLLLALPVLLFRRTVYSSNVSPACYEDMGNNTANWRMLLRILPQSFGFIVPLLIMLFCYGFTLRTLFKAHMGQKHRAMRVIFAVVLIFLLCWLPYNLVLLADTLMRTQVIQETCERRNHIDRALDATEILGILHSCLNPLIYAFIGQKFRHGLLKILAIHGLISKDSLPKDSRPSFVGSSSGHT

[11] = target: T5, WT CXCR3 (Homo sapiens, UniProt P49682); assay: Label-free DMR agonist response, HEK293T expressing WT CXCR3; assay type: cell-based
T5 sequence (P49682 1-368): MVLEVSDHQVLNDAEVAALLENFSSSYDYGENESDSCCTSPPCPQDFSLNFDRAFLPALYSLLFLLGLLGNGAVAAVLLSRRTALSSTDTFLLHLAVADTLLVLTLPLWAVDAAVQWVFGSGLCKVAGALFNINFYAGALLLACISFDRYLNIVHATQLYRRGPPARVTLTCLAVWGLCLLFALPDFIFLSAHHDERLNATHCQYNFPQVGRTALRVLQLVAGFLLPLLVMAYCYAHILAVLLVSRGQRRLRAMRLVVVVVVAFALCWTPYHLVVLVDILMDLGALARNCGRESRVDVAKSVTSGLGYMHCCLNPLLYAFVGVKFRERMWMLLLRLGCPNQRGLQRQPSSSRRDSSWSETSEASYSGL

[12] = target: T6, ΔPDZ CXCR3 (Homo sapiens, UniProt P49682); assay: Label-free DMR agonist response, HEK293T expressing ΔPDZ CXCR3; assay type: cell-based
T6 sequence (P49682 1-364 limits assumed): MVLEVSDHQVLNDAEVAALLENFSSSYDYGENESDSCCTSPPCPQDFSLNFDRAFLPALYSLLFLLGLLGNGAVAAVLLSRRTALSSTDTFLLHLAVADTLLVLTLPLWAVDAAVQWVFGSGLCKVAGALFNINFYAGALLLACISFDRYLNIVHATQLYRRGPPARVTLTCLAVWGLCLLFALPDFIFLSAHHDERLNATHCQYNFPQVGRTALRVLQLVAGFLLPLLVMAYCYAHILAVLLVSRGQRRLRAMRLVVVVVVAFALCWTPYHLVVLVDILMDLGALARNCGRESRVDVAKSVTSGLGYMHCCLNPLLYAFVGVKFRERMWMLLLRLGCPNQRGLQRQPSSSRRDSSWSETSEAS

[13] = target: T7, WT CXCR5 (Homo sapiens, UniProt P32302); assay: Label-free DMR agonist response, HEK293T expressing WT CXCR5; assay type: cell-based
T7 sequence (P32302 1-372): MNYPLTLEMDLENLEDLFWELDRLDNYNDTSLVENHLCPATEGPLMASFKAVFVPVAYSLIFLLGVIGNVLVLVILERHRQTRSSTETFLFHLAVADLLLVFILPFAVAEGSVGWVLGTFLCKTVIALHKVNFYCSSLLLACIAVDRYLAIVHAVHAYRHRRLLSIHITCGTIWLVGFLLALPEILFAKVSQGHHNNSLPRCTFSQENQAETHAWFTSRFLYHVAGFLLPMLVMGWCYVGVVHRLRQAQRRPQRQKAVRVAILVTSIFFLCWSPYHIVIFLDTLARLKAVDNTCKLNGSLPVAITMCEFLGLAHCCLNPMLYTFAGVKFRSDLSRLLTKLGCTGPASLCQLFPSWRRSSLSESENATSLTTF

[14] = target: T8, ΔPDZ CXCR5 (Homo sapiens, UniProt P32302); assay: Label-free DMR agonist response, HEK293T expressing ΔPDZ CXCR5; assay type: cell-based
T8 sequence (P32302 1-368 limits assumed): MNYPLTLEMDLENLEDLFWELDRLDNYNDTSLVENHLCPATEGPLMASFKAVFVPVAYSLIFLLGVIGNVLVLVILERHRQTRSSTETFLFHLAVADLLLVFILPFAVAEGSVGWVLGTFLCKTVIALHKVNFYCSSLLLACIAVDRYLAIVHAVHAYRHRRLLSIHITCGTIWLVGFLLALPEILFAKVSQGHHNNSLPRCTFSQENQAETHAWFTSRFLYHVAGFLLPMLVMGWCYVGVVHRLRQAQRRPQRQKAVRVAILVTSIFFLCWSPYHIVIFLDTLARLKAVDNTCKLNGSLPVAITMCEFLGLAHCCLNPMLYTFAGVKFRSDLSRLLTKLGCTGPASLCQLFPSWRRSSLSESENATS

Sequence of WT P2RY12 (Q9H244 whole entry, one chain of several): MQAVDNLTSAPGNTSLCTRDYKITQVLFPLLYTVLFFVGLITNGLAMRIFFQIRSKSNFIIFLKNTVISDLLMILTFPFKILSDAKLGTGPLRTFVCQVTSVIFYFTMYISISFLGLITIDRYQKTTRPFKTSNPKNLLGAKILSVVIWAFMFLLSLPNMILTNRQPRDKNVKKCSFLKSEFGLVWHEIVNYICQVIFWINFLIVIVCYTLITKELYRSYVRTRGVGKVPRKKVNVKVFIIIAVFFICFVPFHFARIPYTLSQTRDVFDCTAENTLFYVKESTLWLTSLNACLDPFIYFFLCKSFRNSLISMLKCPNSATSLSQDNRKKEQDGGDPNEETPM
Sequence of ΔPDZ P2RY12 (Q9H244 1-338 limits assumed, stated change not applied, one chain of several): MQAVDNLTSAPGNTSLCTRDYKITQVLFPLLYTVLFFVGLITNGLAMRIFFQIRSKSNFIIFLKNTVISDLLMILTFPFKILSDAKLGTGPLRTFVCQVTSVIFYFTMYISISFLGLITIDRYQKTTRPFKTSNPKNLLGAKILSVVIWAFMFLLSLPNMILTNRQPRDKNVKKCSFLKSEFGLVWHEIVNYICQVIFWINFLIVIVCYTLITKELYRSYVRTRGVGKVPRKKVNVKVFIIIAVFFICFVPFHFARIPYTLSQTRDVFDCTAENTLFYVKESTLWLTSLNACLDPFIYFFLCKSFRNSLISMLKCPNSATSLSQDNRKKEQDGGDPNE
Sequence of WT P2RY1 (P47900 whole entry): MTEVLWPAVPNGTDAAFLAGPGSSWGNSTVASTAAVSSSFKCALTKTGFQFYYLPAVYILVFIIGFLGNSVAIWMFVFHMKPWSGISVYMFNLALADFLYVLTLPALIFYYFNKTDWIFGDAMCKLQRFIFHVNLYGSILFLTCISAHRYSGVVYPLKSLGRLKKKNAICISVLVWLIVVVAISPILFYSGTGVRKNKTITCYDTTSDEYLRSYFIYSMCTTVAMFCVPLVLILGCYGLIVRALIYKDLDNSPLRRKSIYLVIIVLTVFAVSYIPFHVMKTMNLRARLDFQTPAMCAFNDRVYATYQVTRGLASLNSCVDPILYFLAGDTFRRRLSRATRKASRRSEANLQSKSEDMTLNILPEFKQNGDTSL
Sequence of ΔPDZ P2RY1 (P47900 1-369 limits assumed, stated change not applied): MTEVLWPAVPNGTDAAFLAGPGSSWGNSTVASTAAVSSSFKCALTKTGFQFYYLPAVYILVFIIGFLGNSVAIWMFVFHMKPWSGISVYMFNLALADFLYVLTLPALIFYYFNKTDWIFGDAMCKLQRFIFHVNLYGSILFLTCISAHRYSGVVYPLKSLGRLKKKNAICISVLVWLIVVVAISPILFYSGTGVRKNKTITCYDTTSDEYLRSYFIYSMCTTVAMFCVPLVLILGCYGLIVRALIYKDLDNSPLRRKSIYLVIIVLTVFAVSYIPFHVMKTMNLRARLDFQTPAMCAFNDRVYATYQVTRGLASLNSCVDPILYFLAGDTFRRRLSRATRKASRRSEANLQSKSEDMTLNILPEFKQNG

O=c1ccn([C@@H]2O[C@H](COP(=O)(O)OP(=O)(O)OP(=O)(O)O)[C@@H](O)[C@H]2O)c(=O)[nH]1 [UTP]
WT pEC50 ([1]; HEK293T, WT P2RY1, DMR CRC): −5.39 ± 0.15 | WT Max (DMR) ([1]; HEK293T, WT P2RY1, maximal agonist DMR response): 116.19 ± 2.22 | WT TTP ([1]; HEK293T, WT P2RY1, time to peak DMR): 4.87 s | Agonist potency (in words) ([1]; P2Y receptors (P2RY1), DMR): micromolar | ΔPDZ pEC50 ([2]; ΔPDZ P2RY1, DMR CRC): −5.69 ± 0.19 | ΔPDZ Max (DMR) ([2]; ΔPDZ P2RY1, maximal agonist DMR response): 118.68 ± 10.27 | ΔPDZ TTP ([2]; ΔPDZ P2RY1, time to peak DMR): 5.27 s | WT pEC50 ([3]; HEK293T, WT P2RY12, DMR CRC): −5.47 ± 0.07 | WT Max (DMR) ([3]; HEK293T, WT P2RY12, maximal agonist DMR response): 170.04 ± 2.93 | WT TTP ([3]; HEK293T, WT P2RY12, time to peak DMR): 5.40 s | Agonist potency (in words) ([3]; P2Y receptors (P2RY12), DMR): micromolar | ΔPDZ pEC50 ([4]; ΔPDZ P2RY12, DMR CRC): −5.70 ± 0.08 | ΔPDZ Max (DMR) ([4]; ΔPDZ P2RY12, maximal agonist DMR response): 192.60 ± 6.35 | ΔPDZ TTP ([4]; ΔPDZ P2RY12, time to peak DMR): 5.20 s

CNC[C@H](O)c1cccc(O)c1 [phenylephrine]
enhancement of the DMR response ([5]; ADRA1D with overexpression of SCRIB alone): ~5 fold | activation, DMR (in words) ([5]; WT ADRA1D): weak activation | activation, DMR (in words) [6]: weak activation

interleukin-8
WT pEC50 ([7]; WT CXCR1, DMR CRC): −8.29 ± 0.07 | WT Max (DMR) ([7]; WT CXCR1, maximal agonist DMR response): 69.69 ± 1.88 | WT TTP ([7]; WT CXCR1, time to peak DMR): 3.60 s | ΔPDZ pEC50 ([8]; ΔPDZ CXCR1, DMR CRC): −7.08 ± 0.45 | ΔPDZ Max (DMR) ([8]; ΔPDZ CXCR1, maximal agonist DMR response): 9.48 ± 1.53 | ΔPDZ TTP ([8]; ΔPDZ CXCR1, time to peak DMR): 3.80 s | WT pEC50 ([9]; WT CXCR2, DMR CRC): −8.53 ± 0.11 | WT Max (DMR) ([9]; WT CXCR2, maximal agonist DMR response): 34.89 ± 2.08 | WT TTP ([9]; WT CXCR2, time to peak DMR): 3.20 s | ΔPDZ pEC50 ([10]; ΔPDZ CXCR2, DMR CRC): −8.45 ± 0.13 | ΔPDZ Max (DMR) ([10]; ΔPDZ CXCR2, maximal agonist DMR response): 37.50 ± 2.20 | ΔPDZ TTP ([10]; ΔPDZ CXCR2, time to peak DMR): 3.50 s | WT Max (DMR) ([11]; WT CXCR3, maximal agonist DMR response): 10.17 ± 2.00 | WT TTP ([11]; WT CXCR3, time to peak DMR): 11.70 s | ΔPDZ Max (DMR) ([12]; ΔPDZ CXCR3, maximal agonist DMR response): 18.3 ± 3.16 | ΔPDZ TTP ([12]; ΔPDZ CXCR3, time to peak DMR): 15.60 s | WT pEC50 ([13]; WT CXCR5, DMR CRC): −10.34 ± 0.16 | WT Max (DMR) ([13]; WT CXCR5, maximal agonist DMR response): 23.22 ± 1.80 | WT TTP ([13]; WT CXCR5, time to peak DMR): 2.50 s | ΔPDZ pEC50 ([14]; ΔPDZ CXCR5, DMR CRC): −9.97 ± 0.12 | ΔPDZ Max (DMR) ([14]; ΔPDZ CXCR5, maximal agonist DMR response): 40.70 ± 2.54 | ΔPDZ TTP ([14]; ΔPDZ CXCR5, time to peak DMR): 2.30 s
